Laboratory results published in patent US20020199211A1 (CHILDREN S MEDICAL CENTER, published 2002).

B1: pGAD424 without insert (Gal4 activation domain alone) (other, UniProt P04386 768-881, looked up)
chain: ANFNQSGNIADSSLSFTFTNSSNGPNLITTQTNSQALSQPIASSNVHDNFMNNEITASKIDDGNNSKPLSPGWTDQTAYNAFGITTGMFNTTTMDDVYNYLFDDEDTPPNPKKE
notes: also called None (pGAD424)
B2: human TRAF1 (amino acids 62-416) in pGAD424 (other, UniProt Q13077 62-416, looked up, not shown: large carriers)
chain: LQSISPGSRLRTQEKAHPEVAEAGIGCPFAGVGCSFKGSPQSVQEHEVTSQTSHLNLLLGFMKQWKARLGCGLESGPMALEQNLSDLQLQAAVEVAGDLEVDCYRAPCSESQEELALQHFMKEKLLAELEGKLRVFENIVAVLNKEVEASHLALATSIHQSQLDRERILSLEQRVVELQQTLAQKDQALGKLEQSLRLMEEASFDGTFLWKITNVTRRCHESACGRTVSLFSPAFYTAKYGYKLCLRLYLNGDGTGKRTHLSLFIVIMRGEYDALLPWPFRNKVTFMLLDQNNREHAIDAFRPDLSSASFQRPQSETNVASGCPLFFPLSKLQSPKHAYVKDDTMFLKCIVETST
notes: Control prey; also called tumor necrosis factor receptor-associated factor 1

Legend:
[1] = target: Nck-GBT9 (full-length Nck in the bait vector pGBT9) (UniProt P04386 1-147; P16333 1-377); experiment: yeast two-hybrid (HF7c); - means no growth on selective medium
Experimental: (§1) Yeast transformation and colony analysis were performed according to the manufacturer's instructions (Matchmaker Two-Hybrid System Protocol, CLONTECH).

[2] = target: T1, full length WASP cloned into the bait vector pGBT9 (Gal4 binding domain fusion) (UniProt P04386 1-147; P42768 1-502); experiment: as above
T1 construct: also called WAS protein
Experimental: as §1

Row | Binder | binding result [1] | binding result [2]
1 | B1 | no binding | no binding
2 | B2 | no binding | no binding
